Target: human FGFR2b (beta)-Fc (human) (UniProt P21802)
Assay: surface plasmon resonance (Biacore T200), hFGFR2b-Fc amine-coupled to a CM5 chip, antibody injected

FPA144 (antibody)
Kd: 750 pM
koff: 7.77e-05 s⁻¹
kon: 104000 M⁻¹ s⁻¹

From patent publication US20230052680A1
